# Experimental data published in patent publication US20230381333A1 (HANMI PHARM, published 2023).
# Bridge positions count the residues as written; N and C are the ends. Square brackets hold non-standard residues; d marks the D form. Ends that are not written are not given here. * marks the point of attachment. Acetyl(2-(4-imidazolyl)) = O=C(Cc1c[nH]cn1)*; Aib = CC(C)(N)C(=O)O
# T1: human GIP receptor (human, UniProt P48546 22-466)
# T1 sequence (looked up): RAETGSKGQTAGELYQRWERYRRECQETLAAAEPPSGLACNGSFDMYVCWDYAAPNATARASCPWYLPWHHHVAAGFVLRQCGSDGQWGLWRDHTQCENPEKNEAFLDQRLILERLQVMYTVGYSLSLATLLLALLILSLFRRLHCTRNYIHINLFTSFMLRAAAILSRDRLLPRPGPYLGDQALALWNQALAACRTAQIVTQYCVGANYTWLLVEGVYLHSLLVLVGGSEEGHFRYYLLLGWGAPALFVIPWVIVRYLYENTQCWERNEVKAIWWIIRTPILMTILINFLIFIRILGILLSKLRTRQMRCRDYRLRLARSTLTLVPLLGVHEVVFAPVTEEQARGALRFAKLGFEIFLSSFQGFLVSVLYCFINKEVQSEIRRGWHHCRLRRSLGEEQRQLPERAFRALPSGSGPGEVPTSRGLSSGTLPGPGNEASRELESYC
# Target: T1, human GIP receptor
# Assay: cell-based or functional assay
row,Binder,"In vitro activity compared to native-type peptide (%), vs GIP [%]"
1,Y[Aib]QGTFTSDYSKALDEKAAKDFVNWLLDQHPSSGQPPPSC (bridge 16-20) [triple agonist of SEQ ID NO: 102],58
2,[Acetyl(2-(4-imidazolyl))]GQGTFTSDYSIQLDEIAVRDFVEWLKNGGPSSGAPPPSHG [triple agonist of SEQ ID NO: 14],< 0.1
3,Y[Aib]QGTFTSDYSKALDEKAAKEFVNWLLDHHPSSGQPPPSC (bridge 16-20) [triple agonist of SEQ ID NO: 98],47.1
4,[Acetyl(2-(4-imidazolyl))]GEGTFISDYSIQLDEIAVQDFVEWLLAQKPSSGAPPPSHG [triple agonist of SEQ ID NO: 13],< 0.1
5,[Acetyl(2-(4-imidazolyl))]GEGTFISDLSKYMDEQAVQLFVEWLMAGGPSSGAPPPSHG [triple agonist of SEQ ID NO: 12],< 0.1
6,Y[Aib]QGTFTSDYSKYLDEKRAKEFVQWLLDHCPSSGQPPPS (bridge 16-20) [triple agonist of SEQ ID NO: 96],5.2
7,Y[Aib]QGTFTSDYSKYLDEKRAKEFVQWLLDCHPSSGQPPPS (bridge 16-20) [triple agonist of SEQ ID NO: 97],2.6
8,[Acetyl(2-(4-imidazolyl))]GEGTFTSDLSKYLDSRRQQLFVQWLKAGGPSSGAPPPSHG [triple agonist of SEQ ID NO: 11],< 0.1
9,Y[Aib]QGTFTSDYSKALDEKAAKDFVNWLLDHHPSSGQPPPSC (bridge 16-20) [triple agonist of SEQ ID NO: 99],57.7
10,Y[Aib]QGTFTSDYSKALDEKAAKEFVQWLLDQHPSSGQPPPSC (bridge 16-20) [triple agonist of SEQ ID NO: 100],118
11,H[Aib]QGTFTSDVSSYLDGQAQKEFIAWLVKGC [triple agonist of SEQ ID NO: 2],< 0.1
12,Y[Aib]QGTFTSDYSKALDEKAAKEFVNWLLDQHPSSGQPPPSC (bridge 16-20) [triple agonist of SEQ ID NO: 101],40.1

# Target: human GCG receptor (human, UniProt P47871 26-477)
# Assay: cell-based or functional assay
# Sequence of human GCG receptor (P47871 26-477): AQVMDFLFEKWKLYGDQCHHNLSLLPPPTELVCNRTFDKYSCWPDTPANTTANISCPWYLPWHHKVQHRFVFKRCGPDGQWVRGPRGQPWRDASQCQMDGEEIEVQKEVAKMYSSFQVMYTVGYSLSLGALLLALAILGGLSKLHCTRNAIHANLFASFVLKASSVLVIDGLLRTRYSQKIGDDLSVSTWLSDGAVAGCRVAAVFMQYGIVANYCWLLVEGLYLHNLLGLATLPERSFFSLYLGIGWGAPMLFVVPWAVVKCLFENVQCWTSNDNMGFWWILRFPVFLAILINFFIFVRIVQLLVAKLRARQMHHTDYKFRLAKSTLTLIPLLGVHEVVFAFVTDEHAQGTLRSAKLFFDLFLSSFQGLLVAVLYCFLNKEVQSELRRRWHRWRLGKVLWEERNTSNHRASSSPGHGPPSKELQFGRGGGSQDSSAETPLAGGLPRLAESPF
row,Binder,"In vitro activity compared to native-type peptide (%), vs Glucagon [%]"
1,Y[Aib]QGTFTSDYSKALDEKAAKDFVNWLLDQHPSSGQPPPSC (bridge 16-20) [triple agonist of SEQ ID NO: 102],29.5
2,[Acetyl(2-(4-imidazolyl))]GQGTFTSDYSIQLDEIAVRDFVEWLKNGGPSSGAPPPSHG [triple agonist of SEQ ID NO: 14],< 0.1
3,Y[Aib]QGTFTSDYSKALDEKAAKEFVNWLLDHHPSSGQPPPSC (bridge 16-20) [triple agonist of SEQ ID NO: 98],8.2
4,[Acetyl(2-(4-imidazolyl))]GEGTFISDYSIQLDEIAVQDFVEWLLAQKPSSGAPPPSHG [triple agonist of SEQ ID NO: 13],< 0.1
5,[Acetyl(2-(4-imidazolyl))]GEGTFISDLSKYMDEQAVQLFVEWLMAGGPSSGAPPPSHG [triple agonist of SEQ ID NO: 12],< 0.1
6,Y[Aib]QGTFTSDYSKYLDEKRAKEFVQWLLDHCPSSGQPPPS (bridge 16-20) [triple agonist of SEQ ID NO: 96],195
7,Y[Aib]QGTFTSDYSKYLDEKRAKEFVQWLLDCHPSSGQPPPS (bridge 16-20) [triple agonist of SEQ ID NO: 97],62.8
8,[Acetyl(2-(4-imidazolyl))]GEGTFTSDLSKYLDSRRQQLFVQWLKAGGPSSGAPPPSHG [triple agonist of SEQ ID NO: 11],< 0.1
9,Y[Aib]QGTFTSDYSKALDEKAAKDFVNWLLDHHPSSGQPPPSC (bridge 16-20) [triple agonist of SEQ ID NO: 99],14.9
10,Y[Aib]QGTFTSDYSKALDEKAAKEFVQWLLDQHPSSGQPPPSC (bridge 16-20) [triple agonist of SEQ ID NO: 100],12.7
11,H[Aib]QGTFTSDVSSYLDGQAQKEFIAWLVKGC [triple agonist of SEQ ID NO: 2],< 0.1
12,Y[Aib]QGTFTSDYSKALDEKAAKEFVNWLLDQHPSSGQPPPSC (bridge 16-20) [triple agonist of SEQ ID NO: 101],13.9

# Target: human GLP-1 receptor (human, UniProt P43220 24-463)
# Assay: cell-based or functional assay
row,Binder,"In vitro activity compared to native-type peptide (%), vs GLP-1 [%]"
1,Y[Aib]QGTFTSDYSKALDEKAAKDFVNWLLDQHPSSGQPPPSC (bridge 16-20) [triple agonist of SEQ ID NO: 102],23.3
2,[Acetyl(2-(4-imidazolyl))]GQGTFTSDYSIQLDEIAVRDFVEWLKNGGPSSGAPPPSHG [triple agonist of SEQ ID NO: 14],28
3,Y[Aib]QGTFTSDYSKALDEKAAKEFVNWLLDHHPSSGQPPPSC (bridge 16-20) [triple agonist of SEQ ID NO: 98],28.1
4,[Acetyl(2-(4-imidazolyl))]GEGTFISDYSIQLDEIAVQDFVEWLLAQKPSSGAPPPSHG [triple agonist of SEQ ID NO: 13],< 0.1
5,[Acetyl(2-(4-imidazolyl))]GEGTFISDLSKYMDEQAVQLFVEWLMAGGPSSGAPPPSHG [triple agonist of SEQ ID NO: 12],0.4
6,Y[Aib]QGTFTSDYSKYLDEKRAKEFVQWLLDHCPSSGQPPPS (bridge 16-20) [triple agonist of SEQ ID NO: 96],34.4
7,Y[Aib]QGTFTSDYSKYLDEKRAKEFVQWLLDCHPSSGQPPPS (bridge 16-20) [triple agonist of SEQ ID NO: 97],10.5
8,[Acetyl(2-(4-imidazolyl))]GEGTFTSDLSKYLDSRRQQLFVQWLKAGGPSSGAPPPSHG [triple agonist of SEQ ID NO: 11],1.4
9,Y[Aib]QGTFTSDYSKALDEKAAKDFVNWLLDHHPSSGQPPPSC (bridge 16-20) [triple agonist of SEQ ID NO: 99],20.9
10,Y[Aib]QGTFTSDYSKALDEKAAKEFVQWLLDQHPSSGQPPPSC (bridge 16-20) [triple agonist of SEQ ID NO: 100],42.2
11,H[Aib]QGTFTSDVSSYLDGQAQKEFIAWLVKGC [triple agonist of SEQ ID NO: 2],5.9
12,Y[Aib]QGTFTSDYSKALDEKAAKEFVNWLLDQHPSSGQPPPSC (bridge 16-20) [triple agonist of SEQ ID NO: 101],23.2
